What was measured:
[1] = system: in vitro model of the BBB (bEnd3 cells); test: Transmigration of radiolabelled peptides across in vitro BBB model; format: in vitro ADME
Description: Using the same in vitro model of the BBB described above, peptides labelled with technetium and gallium were tested for the ability to cross endothelial barrier. For each peptide, bEnd3 cells cultured on “tissue culture inserts” were incubated with 5 ρCimL^−1-labelled peptide for different incubation times: 15 min, 5 h and 24 h. As a control, the model without cells was used (Control no cells) or (Filters) and compared to models with cells (BBB) or (Cells).
FIGS. 21A-21F show the percent activity of the radioisotope technetium-labelled peptides at the apex and base after 5 hours of incubation with the in vitro model described above, using the BBB-model or no cells (as a control); and values were obtained from two independent assays. […] Moreover, the results indicated promising candidates. Specifically, for each of pepH1 and pepH3, there was an overpass of 50% in the control, compared with only 20% in the presence of a cell barrier. The translocation of pepH2 was not observed in either the control nor in the BBB model.
Results for the incubations of 15 minutes, 5 hours, and 24 hours are shown together in FIGS. 22A-22F. That is, FIGS. 22A-22F show the percent activity of the radioisotope technetium-labelled peptides at the apex and base after 15 minutes, 5 hours, and 24 hours of incubation with the in vitro model described above, using the BBB-model or no cells (as a control); and values were obtained from two independent assays. Differences again were observed, confirming the integrity of the barrier, as well as identifying peptides that crossed the barrier. […] PepR′ thus was excluded from further tests.
(§1) Table 9 summarizes results regarding uptake (internalization) and cellular interaction, as well as transmigration across an in vitro model for BBB, for peptides labelled with technetium and gallium, after 15 minutes, 5 hours, and 24-hours of incubation, based on percent recovery of radiopeptide. The Table lists the peptides, providing each peptide's name, % BBB transmigration, % cellular interaction, and % internalized, each after […], 5 hours, and 24 hours of incubation.

[2] = Features of peptides: isoelectric point, charge; format: physicochemical; conditions: original peptide
Excerpt: Table 7 lists each peptide's name, isoelectric point (PI), charge (number of positive residues), calculated mass (in Da), and ion found; as well as the name, calculated mass, and found ion for the corresponding conjugate; and also retention times in HPLC and the partition coefficient (log Po/w). These values allowed the determination of the hydrophilic nature of peptides, where pepH1 and pepH4 were identified as the most hydrophilic peptides.

bEnd3 cells [3] = test: MTT cell viability assay; format: cell-based; conditions: for effect on cell viability: 0.1-100 μM (pepM′ 0.1-50 μM), 24 hours; for cell death: concentration below 40 μM, peptide in DMSO
Description: To test possible toxicity of selected peptides to BBB cells, 5×10^4 bEnd3 cells were cultured in 96-well plates, at 100 μL/well, and incubated for 24 hours. The peptides then were added at concentrations of 0.1-100 μM, with the exception of pepM′ (which was added at concentrations of 0.1-50 μM). As a control providing 100% of viability, a well with serum-free media was included.
After 24 hours of incubation, a MTT assay was performed, which is a colorimetric assay for assessing cell metabolic activity. A MTT solution at 5 mg/mL in PBS was added to each well and incubated for 2 hours. After this period, the solution was removed and DMSO added to solubilize violet crystals formed. Absorbance was measured at 540 nm. The viability percentage [Absorbancepeptide-treated cells/Absorbanceuntreated-cells)*100] was calculated and IC50 values were calculated from three independent assays.
As FIGS. 24A-24E show, the selected peptides have no effect on cell viability, specifically, there was no observable nor measurable effect using the assay described.

[4] = Biodistribution of technetium-labelled peptides; format: in vivo, CD1 mice
Description: To evaluate the capacity to cross the BBB in vivo, the selected peptides, pepH1 and pepH3, were analyzed for biodistribution in CD1 mice. The peptides were labelled with technetium at a final concentration of 8.5×10^−5 M and diluted in PBS. CD1 mice were injected (iv injection, tail vein). The mice were sacrificed by cervical dislocation after 5 and 60 minutes of incubation. The tissues of interest were dissected and washed to remove excess blood, weighed, and measured for radioactivity. Technetium radioactivity of the different peptides was measured for different organs.
Initial results are presented in Table 11, where “% I.A. refers to the “% injected activity”, that is, the amount of radioactivity measured in a given organ compared to the total originally injected.
The biodistribution studies were repeated, using higher doses of each peptide, specifically, a one hundred fold increase, as well as using PepH2 as a negative control, and allowing incubation for 2 minutes and 60 minutes. Tissue biodistribution profile in percentage of injected radiopeptide activity per gram of tissue/organ was measured and results are presented in Table 12.

bEnd3 cells [5] = test: Uptake test: cellular interaction (acid wash) and internalization (lysate); format: cell-based
Description: In addition to testing models of BBB, an uptake test was performed to determine the internalizing ability of the candidate peptides. BEnd3 cells were cultured in 24 well plates. At each time point, the medium containing the peptide, which had not interacted with the cells, was collected. In the next step, the cells were washed with an acidic buffer that releases peptides more strongly bound to the cell membrane (sample acid wash). Finally, the cells were lysed to release internalized peptides and to quantify the activity inside the cells. Results are showing in FIGS. 23A-23E.
FIGS. 23A-23E show percent activity of the radioisotope technetium-labelled peptides in the media, wash buffer (acid wash) and lysate, after 15 minutes, 5 hours, and 24 hours of incubation with bEnd3 cells; and values were obtained from two independent assays. […] PepM′, as well as showing high transmigration (about 50%), also appeared to become internalized and accumulated within the cells (about 13% of radioactivity in the lysate).
as §1

[6] = set-up: species or system CD1 mice; conditions: mouse, in vivo
Description: The different antibody-peptide constructs were used in biodistribution assays, and results compared with the biodistribution of the respective DEN2C peptides (pepH1, pepH2, pepH3, and pepM′, chemically synthesized). […] After expression and purification, the sdAbs and sdAb-peptide constructs were conjugated to technetium (^99Tc) and a biodistribution assay was performed, as previously described.
Tables 14-16 show the biodistribution of different anti-BAP42 sdAbs and constructs thereof with different peptides (“pepH3”).

[7] = 99mTc, 24 hours, listed as PepHM′

With KEIGRMLNILNRRRR [PepR′] the BBB transmigration ([1]; 99mTc, 24 hours) was “more limited in crossing the barrier”.

With KLFMALVAFLRFLT [PepH2] the “Charge (number of positive residues)” value [2] was 2, the “PI (isoelectric point)” value [2] was 11 and the “effect on cell viability” value (bEnd3 cells [3]) was “small decrease in viability”. The cell death (bEnd3 cells [3]) was “no cell death”, the “radioactivity levels in the brain” value ([4]; 80 μg, after 60 minutes) was 0.2% and the “radioactivity in the brain” value ([4]; 140 μg (pepH1, pepH3) or 80 μg (pepH2), 2 min) was 0.37%. The excreted ([4]; 140 μg (pepH1, pepH3) or 80 μg (pepH2), after 60 min) was 12.7%, the brain uptake ([4]; after 2 min) was “rapid brain uptake” and the brain washout ([4]; mouse, in vivo) was “brain washout was slower”. The BBB transmigration ([1]; 99mTc, 0.25 hours) was 0.79 ± 0.7%, the BBB transmigration ([1]; 99mTc, 5 hours) was 5.21 ± 3.3% and the BBB transmigration ([1]; 99mTc, 5 hours, listed as pepH2) was “not observed”. It also gave a BBB transmigration ([1]; 99mTc, 24 hours) of 9.32 ± 2.5%, a BBB transmigration ([1]; 99mTc, 24 hours, listed as pepH2) of 9% and a BBB transmigration ([1]; GaCl3, 0.25 hours) of 0.33 ± 0.1%. For the same molecule, the BBB transmigration ([1]; GaCl3, 5 hours) was 4.06 ± 0.3%, the BBB transmigration ([1]; GaCl3, 24 hours) was 13.51 ± 0.7% and the Cellular interaction (bEnd3 cells [5]; 99mTc, 0.25 hours) was 1.60 ± 0.3%. For the same molecule, the Internalization (bEnd3 cells [5]; 99mTc, 0.25 hours) was 2.15 ± 1.2%, the Cellular interaction (bEnd3 cells [5]; 99mTc, 5 hours) was 5.95 ± 3.0% and the Internalization (bEnd3 cells [5]; 99mTc, 5 hours) was 24.8 ± 2.0%. The Cellular interaction (bEnd3 cells [5]; 99mTc, 24 hours) was 2.20 ± 0.4%, the Cellular interaction (bEnd3 cells [5]; GaCl3, 0.25 hours) was 0.77 ± 0.1% and the Internalization (bEnd3 cells [5]; GaCl3, 0.25 hours) was 0.84 ± 0.1%. It also gave a Cellular interaction (bEnd3 cells [5]; GaCl3, 5 hours) of 1.48 ± 0.1%, an Internalization (bEnd3 cells [5]; GaCl3, 5 hours) of 6.97 ± 0.3% and a Cellular interaction (bEnd3 cells [5]; GaCl3, 24 hours) of 1.16 ± 0.1%. It also gave an Internalization (bEnd3 cells [5]; GaCl3, 24 hours) of 9.24 ± 1.2%.

For KSKAINVLRGFRKEIGRMLNILN [PepH4], the “Charge (number of positive residues)” value [2] was 6, the “PI (isoelectric point)” value [2] was 11.7 and the BBB transmigration ([1]; 99mTc, 0.25 hours) was 3.30 ± 0.5%. For the same molecule, the BBB transmigration ([1]; 99mTc, 5 hours) was 30.08 ± 1.6%, the BBB transmigration ([1]; GaCl3, 0.25 hours) was 0.93 ± 0.1% and the BBB transmigration ([1]; GaCl3, 5 hours) was 16.60 ± 1.1%. The BBB transmigration ([1]; GaCl3, 24 hours) was 60.79 ± 2.6%, the “where the radiopeptide is found in the uptake test (media, acid wash, lysate)” value (bEnd3 cells [5]; 99mTc) was “mainly remained in the incubation medium” and the Cellular interaction (bEnd3 cells [5]; 99mTc, 0.25 hours) was 2.06 ± 0.3%. It also gave an Internalization (bEnd3 cells [5]; 99mTc, 0.25 hours) of 0.17 ± 0.0%, a Cellular interaction (bEnd3 cells [5]; 99mTc, 5 hours) of 10.10 ± 0.1% and an Internalization (bEnd3 cells [5]; 99mTc, 5 hours) of 1.53 ± 0.0%. The Cellular interaction (bEnd3 cells [5]; 99mTc, 24 hours) was 10.23 ± 0.8%, the Internalization (bEnd3 cells [5]; 99mTc, 24 hours) was 2.83 ± 0.2% and the Cellular interaction (bEnd3 cells [5]; GaCl3, 0.25 hours) was 4.06 ± 0.2%. For the same molecule, the Internalization (bEnd3 cells [5]; GaCl3, 0.25 hours) was 0.26 ± 0.0%, the Cellular interaction (bEnd3 cells [5]; GaCl3, 5 hours) was 3.00 ± 0.1% and the Internalization (bEnd3 cells [5]; GaCl3, 5 hours) was 0.78 ± 0.0%. The Cellular interaction (bEnd3 cells [5]; GaCl3, 24 hours) was 3.82 ± 0.1% and the Internalization (bEnd3 cells [5]; GaCl3, 24 hours) was 1.55 ± 0.1%.

In the case of LVAFLRFLTIPPTAGILKRW [PepM′], the “Charge (number of positive residues)” value [2] is reported as 3, the “PI (isoelectric point)” value [2] is reported as 12.0 and the “effect on cell viability” value (bEnd3 cells [3]) is reported as “small decrease in viability”. For the same molecule, the cell death (bEnd3 cells [3]) was “no cell death”, the BBB transmigration ([1]; 99mTc, 24 hours) was “about 50%” and the BBB transmigration [1, 7] was 53.47 ± 3.1%. It also gave a BBB transmigration ([1]; 99mTc, 24 hours, listed as pepM) of about 50%, a BBB transmigration ([1]; GaCl3, 24 hours) of 47.31 ± 1.2% and a Cellular interaction (bEnd3 cells [5]; 99mTc, 24 hours) of 8.32 ± 1.9%. The Internalization (bEnd3 cells [5]; 99mTc, 24 hours) was “about 13%”, the Internalization (bEnd3 cells [5]; [7]) was 12.81 ± 2.0% and the Cellular interaction (bEnd3 cells [5]; GaCl3, 24 hours) was 2.23 ± 0.1%. It also gave an Internalization (bEnd3 cells [5]; GaCl3, 24 hours) of 3.68 ± 0.0%.

B1: #27in: anti-BAP42 sdAb, SEQ ID NO: 4 (antibody, V domains shown)
VL: ELVLTQTPSSVSAAVGGTVTINCQASQSVSNRLAWYQQKPGQPPKLLIYGASRLESGVPSRFRGSGSGTEFTLTISGMKAEDAATYYCQSCYYSVGVTFGAGTNVEIK
With B1 the “factor by which washout from the brain is slowed on linking to delivery peptide pepH3” value [6] was “about 2” and the “factor of increase of presence in the brain on linking to delivery peptide pepH3” value [6] was “about 6”.

— patent US10654917B2, “Antibody molecules and peptide delivery systems for use in alzheimer's disease and related disorders” (TECHNOPHAGE, INVESTIGAÇĀO E DESENVOLVIMENTO EM …, priority 2015, dated 2020)
